The target in assay [1] is OG488-TFPIα-BR. Put plainly: fluorescence polarisation; steady-state fluorescence anisotropy; FV species or APCi titrated (0–100 nM) into 25 nM OG488-TFPIα-BR and 50 μM PCPS vesicles in HBS/Ca2+/PEG, pH 7.4 (20 mM Hepes, 150 mM NaCl, 5 mM CaCl2, 0.1% PEG-8000), 25 °C; fit to a model for tight binding.
For assay [2], the target named is FV-BR fragment (human) (UniProt P12259).
Assay [3] addresses OG488-TFPIα-BR.

Sequence of FV-BR fragment (human) (P12259 979-1036): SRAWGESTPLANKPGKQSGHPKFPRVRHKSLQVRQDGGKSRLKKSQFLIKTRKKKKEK
Sequence of Human FVa (P12259 29-737): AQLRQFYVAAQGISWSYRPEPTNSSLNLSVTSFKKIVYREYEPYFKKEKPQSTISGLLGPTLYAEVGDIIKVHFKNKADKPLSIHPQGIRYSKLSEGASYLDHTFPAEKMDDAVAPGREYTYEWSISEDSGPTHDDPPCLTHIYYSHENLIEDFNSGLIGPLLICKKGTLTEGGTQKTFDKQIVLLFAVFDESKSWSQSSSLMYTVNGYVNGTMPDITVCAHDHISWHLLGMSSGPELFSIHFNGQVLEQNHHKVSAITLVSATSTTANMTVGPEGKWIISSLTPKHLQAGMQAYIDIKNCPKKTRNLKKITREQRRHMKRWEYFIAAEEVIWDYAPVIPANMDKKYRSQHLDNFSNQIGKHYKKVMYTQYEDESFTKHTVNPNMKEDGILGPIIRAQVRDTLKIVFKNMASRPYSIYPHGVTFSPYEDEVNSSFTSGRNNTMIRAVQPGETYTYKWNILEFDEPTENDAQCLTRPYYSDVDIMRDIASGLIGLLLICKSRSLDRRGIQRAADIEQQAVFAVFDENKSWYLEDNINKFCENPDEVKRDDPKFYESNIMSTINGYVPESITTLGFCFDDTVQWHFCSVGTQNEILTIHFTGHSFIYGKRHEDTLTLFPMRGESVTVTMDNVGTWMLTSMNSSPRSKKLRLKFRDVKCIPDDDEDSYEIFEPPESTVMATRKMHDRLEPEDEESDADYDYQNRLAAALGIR
Sequence of Human FVa (P12259 1574-2224): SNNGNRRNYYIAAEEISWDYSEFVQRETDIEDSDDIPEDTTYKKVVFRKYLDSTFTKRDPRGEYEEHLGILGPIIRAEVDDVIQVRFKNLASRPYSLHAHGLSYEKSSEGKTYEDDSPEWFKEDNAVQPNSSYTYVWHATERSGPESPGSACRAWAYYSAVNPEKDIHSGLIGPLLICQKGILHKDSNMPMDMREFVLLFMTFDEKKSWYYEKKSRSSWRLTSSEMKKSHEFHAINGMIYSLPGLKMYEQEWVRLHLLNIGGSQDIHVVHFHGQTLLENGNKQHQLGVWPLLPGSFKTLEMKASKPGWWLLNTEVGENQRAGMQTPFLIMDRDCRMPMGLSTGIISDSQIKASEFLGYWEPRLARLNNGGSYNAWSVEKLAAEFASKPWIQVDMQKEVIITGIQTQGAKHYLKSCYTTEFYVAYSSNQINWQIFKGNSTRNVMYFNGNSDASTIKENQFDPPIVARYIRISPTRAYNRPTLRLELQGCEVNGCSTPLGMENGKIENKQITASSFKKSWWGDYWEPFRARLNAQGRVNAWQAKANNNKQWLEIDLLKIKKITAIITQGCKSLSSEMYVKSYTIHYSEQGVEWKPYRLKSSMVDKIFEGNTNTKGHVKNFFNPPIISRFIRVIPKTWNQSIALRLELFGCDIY

In assay [1], FV-810-R306Q came in with a Kd of 2.15 nM and a stoichiometry N of 1.44 mol/mol.

Consider “Human FVa (from UniProt P12259 29-737; P12259 1574-2224) (complex)”, for which, in assay [2], the Reduced fold change of inactivation by APC, +FV-BR (kobs no BR divided by kobs +BR; % peak thrombin in TGA; 20 nM FV species, 250 nM BR fragment, 1 nM APC) is 0.9 fold.

As for FV-810, in assay [1], the equilibrium dissociation constant (Kd) is 1.78 nM and the stoichiometry N was found to be 1.29 mol/mol. Further, the Reduced fold change of inactivation by APC, +FV-BR (kobs no BR divided by kobs +BR; % peak thrombin in TGA; 20 nM FV species, 250 nM BR fragment, 1 nM APC) in assay [2] was determined as 17 fold. Besides, the Reduced fold change of inactivation by APC, +TFPIα-BR (kobs no BR divided by kobs +BR; % peak thrombin in TGA; 20 nM FV species, 250 nM BR fragment, 1 nM APC) in assay [3] was determined as 17 fold.

Regarding FV-short (natural protein), the Reduced fold change of inactivation by APC, +FV-BR (kobs no BR divided by kobs +BR; % peak thrombin in TGA; 20 nM FV species, 250 nM BR fragment, 1 nM APC) in assay [2] is 15.7 fold.

For the substance “FV-s46 (from UniProt P12259 29-990; P12259 1037-2224)”, in assay [1], the Kd stood at 2.17 nM and the stoichiometry N was 1.78 mol/mol.

In assay [1], FV-810-R306Q/R506Q gave a Kd of 2.46 nM and a stoichiometry N of 1.18 mol/mol.

For the substance FV-810-R506Q, in assay [1], the Kd worked out at 1.72 nM and the stoichiometry N stood at 1.43 mol/mol.

Values taken from publication PMC9637641.
